Laboratory results reported in US20070197430A1, “Conjugates And Therapeutic Uses Thereof” (priority 2004, published 2007).
Where “and” joins values, the source holds several entries; their conditions need not be identical. Equal values may be shown once. Bridge positions count the residues as written; N and C are the ends. Peptide text beside a SMILES is read from it.

T1: Bcl-w ΔC29 (Homo sapiens, UniProt Q92843)
T1 sequence (Q92843 1-164 limits assumed): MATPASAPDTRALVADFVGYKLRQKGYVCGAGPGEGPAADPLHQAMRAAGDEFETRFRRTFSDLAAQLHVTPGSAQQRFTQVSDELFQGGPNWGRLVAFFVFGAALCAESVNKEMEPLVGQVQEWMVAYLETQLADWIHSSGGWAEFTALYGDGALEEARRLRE


Assays:
[1] = biological target: T2, Bcl-xL ΔC25 (Homo sapiens, UniProt Q07817); assay: Alphascreen GST competition assay with biotinylated BimBH3 peptide; format: binding; settings: Example 14, two values given per peptide
Protocol: (§1) Using solution competition assays and Alphascreen GST-detection as described below, the constrained peptide of Example 2 (peptide A) was assessed for competition binding to Bcl-2 homologues, Bcl-w ΔC29, Bcl-xL ΔC25 and Mcl-1 ΔC23.
(§2) All the assays were performed using 384-well white plates in a total volume of 20 μL. The assay buffer is 50 mM HEPES, 10 mM DTT, 100 mM NaCl, 0.05% Tween 20, 0.1 mg/mL casein, pH 7.4. The bead buffer is 50 mM Tris, 1% Tween 20, 0.1 mg/mL casein, pH 7.5.
(§3) For the GST-Bcl-wΔC29 protein assay, protein (0.10 nM), acceptor beads (10 μg/mL), 50% assay buffer and 50% bead buffer were incubated together for 30 minutes. At the same time, biotinylated BimBH3 peptide (Biotin-[…]-OH) (3 nM), donor beads (10 μg/mL), 50% assay buffer and 50% bead buffer were incubated to get for 30 minutes. For the competition binding assay, protein acceptor bead solution (10 μL) and the candidate compound, A, L1 or L2, were added into each well and incubated for 30 minutes, then biotinylated BimBH3 peptide donor bead solution (10 μL) was added into each well. The total DMSO concentration in each well was then adjusted to 0.5% to 2%. Plates were covered with aluminium foil and incubated at room temperature for 4 hours before reading in a Packard Fusion™ reader with excitation at 680 nm and emission at 520-620 nm. […]
Target sequence in this assay (Q07817 1-208 limits assumed): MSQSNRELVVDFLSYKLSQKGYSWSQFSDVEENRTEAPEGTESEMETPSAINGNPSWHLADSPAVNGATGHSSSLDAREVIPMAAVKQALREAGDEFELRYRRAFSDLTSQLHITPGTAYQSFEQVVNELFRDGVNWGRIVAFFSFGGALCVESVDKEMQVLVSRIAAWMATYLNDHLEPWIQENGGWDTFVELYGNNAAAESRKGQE

[2] = biological target: T2, Bcl-xL ΔC25; assay: Surface plasmon resonance direct binding (Biacore S51); settings: SPR dissociation constant
Text: (§4) In separate assay experiments, surface plasmon resonance (SPR) experiments using a Biacore S51 Biosensor were used as proof of direct binding of peptide A to Bcl-w ΔC29, Bcl-xL ΔC25 and Mcl-1 ΔC23. This technique also has the advantage of yielding dissociation constants, which are shown below.

[3] = biological target: Mcl-1 ΔC23; assay: as above; settings: SPR dissociation constant
Text: as §4

[4] = biological target: T1, Bcl-w ΔC29; assay: Alphascreen GST competition assay with biotinylated Bim BH3-26 peptide; format: binding; settings: Example 14, two values given per peptide
[5] = system: Mcl-1 ΔC23; assay: Alphascreen GST competition assay with biotinylated BakBH3 peptide; format: binding; settings: Example 14, two values given per peptide
Protocol: as §1, §2, §3

[6] = Circular dichroism, alpha-helical content of peptides; format: physicochemical; settings: 30% aqueous trifluoroethanol
Protocol: Circular dichroism spectra were obtained using a Jasco Model J-710 spetropolarimeter at 20° C. using the following parameters: path length, 2 mm; step resolution, 0.1 nm; speed, 20 nm/min, accumulation, 4; response, 1 second; bandwidth, 1.0 nm. The peptides were analysed at a concentration of 0.5 mg/mL in 30% aqueous TFE. The alpha-helical content of the peptides were determined by methods described in Yang et al (1986), involving comparisons of spectra with model helical peptides.

[7] = biological target: T3, Bcl-2 ΔC22 (Homo sapiens, UniProt P10415); assay: Competition assay with biotinylated Bim-BH3 peptide; format: binding; settings: text says Bcl-2 and Bcl-xL
Text: Alphascreen (Amplified Luminsecent Proximity Homogenous Assay) is a bead based technology which measures a biological interaction between molecules. The assay consists of two hydrogel coated beads which, when bought into close proximity by a binding interaction, allow a transfer of singlet oxygen from a donor bead to an acceptor bead.
Upon binding a photosensitiser in the donor bead converts ambient oxygen to a more excited singlet state. This singlet oxygen then diffuses across to react with a chemiluminescer in the acceptor bead. Fluorophores within the same bead are activated, resulting in the emission of light.
Target sequence in this assay (P10415 1-217 limits assumed): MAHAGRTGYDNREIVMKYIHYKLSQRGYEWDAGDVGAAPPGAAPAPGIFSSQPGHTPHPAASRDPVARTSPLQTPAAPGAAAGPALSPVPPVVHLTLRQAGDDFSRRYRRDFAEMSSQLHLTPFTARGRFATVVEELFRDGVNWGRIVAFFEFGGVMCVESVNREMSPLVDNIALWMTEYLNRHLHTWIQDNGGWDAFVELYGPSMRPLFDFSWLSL

[8] = biological target: Mcl-1 ΔC23 (UniProt Q07820); assay: AlphaScreen GST detection; competitor: biotinylated BakBH3 peptide
[9] = biological target: GST tagged Bcl w delta C29 protein (UniProt Q92843); assay: competition assay; competitor: biotinylated Bim-BH3 peptide
[10] = biological target: 6-His tagged Bcl w delta C10 protein (UniProt Q92843); assay: as above
[11] = biological target: T3, Bcl-2 ΔC22; assay: as above
[12] = biological target: T2, Bcl-xL ΔC25; assay: AlphaScreen GST detection; competitor: biotinylated BimBH3 peptide
[13] = biological target: GST tagged Bcl w delta C29 protein (UniProt Q92843); assay: as above
[14] = biological target: T2, Bcl-xL ΔC25; assay: AlphaScreen GST detection; competitor: biotinylated BimBH3 peptide; second of two values
[15] = biological target: GST tagged Bcl w delta C29 protein (UniProt Q92843); assay: as above
[16] = biological target: Mcl-1 ΔC23 (UniProt Q07820); assay: AlphaScreen GST detection; competitor: biotinylated BakBH3 peptide; second of two values
[17] = biological target: T2, Bcl-xL ΔC25; assay: SPR, Biacore S51, direct binding
[18] = biological target: Mcl-1 ΔC23 (UniProt Q07820); assay: SPR, Biacore S51, direct binding

IC50 [1]	Kd [2]	Kd [3]	IC50 [4]	IC50 [5]	% Helicity [6]	IC50 [8]	IC50 [9]	IC50 [10]	IC50 [11]	IC50 [12]	IC50 [13]	IC50 [14]	IC50 [15]	IC50 [16]	Kd [17]	Kd [18]	Molecule	further results
960 nM and 890 nM	370 nM	920 nM	120 nM	650 nM and 660 nM													CC[C@H](C)[C@H](NC(C)=O)C(=O)N[C@@H](C)C(=O)N[C@@H](CCC(N)=O)C(=O)N[C@@H](CCC(N)=O)C(=O)N[C@@H](CC(C)C)C(=O)N[C@@H](CCCNC(=N)N)C(=O)N[C@@H](CCCNC(=N)N)C(=O)N[C@H](C(=O)NCC(=O)N[C@@H](CC(=O)O)C(=O)N[C@@H](CCC(N)=O)C(=O)N[C@@H](Cc1ccccc1)C(N)=O)[C@@H](C)CC [Peptide L2] (Ac-IAQQLRRIGDQF-NH2)	
					16%												CC[C@H](C)[C@H](NC(C)=O)C(=O)N[C@@H](C)C(=O)N[C@@H](CCC(N)=O)C(=O)N[C@H]1CCC(=O)NCC(=O)NCCNC(=O)CC[C@@H](C(=O)N[C@@H](Cc2ccccc2)C(N)=O)NC(=O)[C@H](CC(=O)O)NC(=O)CNC(=O)[C@H]([C@@H](C)CC)NC(=O)[C@H](CCCNC(=N)N)NC(=O)[C@H](CCCNC(=N)N)NC(=O)[C@H](CC(C)C)NC1=O [D, Ac-IAQ-E-LRRIGD-E-F-NH2] (HELM PEPTIDE1{[ac].I.A.Q.E.L.R.R.I.G.D.E.F.[am]}|CHEM1{[O=C(CN[*:1])NCCN[*:2]]}$PEPTIDE1,CHEM1,5:R3-1:R1|PEPTIDE1,CHEM1,12:R3-1:R2$$$V2.0)	
7000 nM and 6300 nM	5200 nM	1200 nM	820 nM and 800 nM	400 nM and 360 nM	9%												CC[C@H](C)[C@H](NC(C)=O)C(=O)N[C@@H](C)C(=O)N[C@@H](CCC(N)=O)C(=O)N[C@@H](CCC(=O)O)C(=O)N[C@@H](CC(C)C)C(=O)N[C@@H](CCCNC(=N)N)C(=O)N[C@@H](CCCNC(=N)N)C(=O)N[C@H](C(=O)NCC(=O)N[C@@H](CC(=O)O)C(=O)N[C@@H](CCC(=O)O)C(=O)N[C@@H](Cc1ccccc1)C(N)=O)[C@@H](C)CC [Peptide L1] (Ac-IAQELRRIGDEF-NH2)	
					39%												CC[C@H](C)[C@H](NC(C)=O)C(=O)N[C@@H](C)C(=O)N[C@@H](CCC(N)=O)C(=O)N[C@H]1CCC(=O)NCCCCCCNC(=O)CC[C@@H](C(=O)N[C@@H](Cc2ccccc2)C(N)=O)NC(=O)[C@H](CC(=O)O)NC(=O)CNC(=O)[C@H]([C@@H](C)CC)NC(=O)[C@H](CCCNC(=N)N)NC(=O)[C@H](CCCNC(=N)N)NC(=O)[C@H](CC(C)C)NC1=O [C, Ac-IAQ-E-LRRIGD-E-F-NH2] (HELM PEPTIDE1{[ac].I.A.Q.E.L.R.R.I.G.D.E.F.[am]}|CHEM1{[C(CCCN[*:2])CCN[*:1]]}$PEPTIDE1,CHEM1,5:R3-1:R1|PEPTIDE1,CHEM1,12:R3-1:R2$$$V2.0)	affinity over the unconstrained 12-mer, in words [7]: outstanding increases in affinity
						400 nM	4700 nM	870 nM	240000 nM	7000 nM	820 nM	6300 nM	800 nM	360 nM	5200 nM	1200 nM	Ac-IAQELRRIGDEF-NH2 [Linear 12mer Ac-…-NH2]	
						3 nM	150 nM	65 nM	290 nM	57 nM	40 nM	54 nM	34 nM	3 nM	10 nM	10 nM	Ac-IAQELRRIGDEF-NH2 (linker 4-11 via 1,5‑diaminopentane) [Acetyl-IAQ(E1)LRRIGD(E2)F-amide with a 1,5-diaminopentane linker (second position)]	
